Laboratory results from patent EP3505186B1, “NUCLEOPHILIC CATALYSTS FOR OXIME LINKAGE” (Takeda Pharmaceutical Company Limited, priority 2010, dated 2012).

Legend:
[1] = Specific activity of the EPO conjugate: biological activity by methods known in the art and total protein (Bradford)
FIX chromogenic activity = assay: Specific activity of the rFIX conjugate: FIX chromogenic (and clotting) activity and total protein; type: biochemical
Description: The free rFIX was removed by means of anion exchange chromatography (AEC). The reaction mixture was diluted with 15 ml Buffer A (50 mM Hepes, 5 mM CaCl2, pH 7.5) and loaded onto a 20 ml HiPrep QFF 16/10 column (GE Healthcare, Fairfield, CT) pre-equilibrated with Buffer A. The column was then eluted with Buffer B (50 mM Hepes, 1 M NaCl, 5 mM CaCl2, pH 7.5). Free rFIX elutes at a conductivity between 12-25 mS/cm and the conjugate between 27-45 mS/cm. The conductivity of the conjugate containing fractions was subsequently raised to 190 mS/cm with Buffer C (50 mM Hepes, 5M NaCl, 5 mM CaCl2, pH 6.9) and loaded onto a 20 ml HiPrep Butyl FF 16/10 column (GE Healthcare, Fairfield, CT) pre-equilibrated with Buffer D (50 mM Hepes, 3 M NaCl, 5 mM CaCl2, pH 6.9). Free aminooxy-PSA reagent was washed out within 5 CV Buffer D. Subsequently the conjugate is eluted with 100 % Buffer E (50 mM Hepes, 5 mM CaCl2, pH 7.4). The conjugate containing fractions were concentrated by UF/DF using Vivaspin 15R 10 kD centrifugal filtrator. The final diafiltration step was performed against histidine buffer, pH 7.2 containing 150 mM NaCl and 5 mM CaCl2. The preparation was analytically characterized by measuring total protein (Bradford) and FIX chromogenic activity.
The free rFIX is removed by means of anion exchange chromatography (AEC). The reaction mixture is diluted with appropriate amounts of Buffer A (50 mM Hepes, 5 mM CaCl2, pH 7.5) to correct the solutions conductivity and pH prior to load onto a 20 ml HiPrep QFF 16/10 column (GE Healthcare, Fairfield, CT) pre-equilibrated with buffer A. Then the column is eluted with Buffer B (50 mM Hepes, 1 M NaCl, 5 mM CaCl2, pH 7.5). Free rFIX is eluted by a step gradient using 25 % of Buffer B, which results in a conductivity between 12-25 mS/cm in the obtained fraction and the conjugate using a step gradient of 50 % Buffer B, which results in a conductivity between between 27-45 mS/cm in the conjugate fraction. […] Free aminooxy-PSA reagent is washed out within 5 CV Buffer D. Subsequently, the conjugate is eluted with 100 % Buffer E (50 mM Hepes, 5 mM CaCl2, pH 7.4). The conjugate containing fractions are concentrated by UF/DF using a 10 kD membrane made of regenerated cellulose (88 cm2, cut-off 10 kD, Millipore). The final diafiltration step is performed against L-histidine buffer, pH 7.2 containing 150 mM NaCl and 5 mM CaCl2. The preparation is analytically characterized by measuring total protein (Bradford and BCA procedure) and FIX chromogenic- and clotting activity. For the PSA-rFIX conjugate a specific activity of > 50 % in comparison to native rFIX is determined.
The free rFIX was removed by means of anion exchange chromatography (AEC). […]

[2] = Specific activity of the interferon-gamma conjugate: biological activity by methods known in the art and total protein (Bradford)
Description: (§1) The free Interferon-gamma is removed by means of cation exchange chromatography (CEC). The reaction mixture is diluted with 20 ml Buffer A (50 mM Hepes, pH 6.5) and loaded onto a 20 ml HiPrep SPFF 16/10 column (GE Healthcare, Fairfield, CT) pre-equilibrated with Buffer A. Then the column is eluted with Buffer B (50 mM Hepes, 1 M NaCl, pH 6.5). Free interferon-gamma is eluted by washing the column with 25 % Buffer B and the conjugate at 50 % Buffer B. The conductivity of the conjugate containing fractions is subsequently raised to -190 mS/cm with Buffer C (50 mM Hepes, 5 M NaCl, pH 6.9) and loaded onto a 20 ml HiPrep Butyl FF 16/10 column (GE Healthcare, Fairfield, CT) pre-equilibrated with Buffer D (50 mM Hepes, 3 M NaCl, pH 6.9). Free PSA-reagent is washed out within 5 CV Buffer D. Subsequently, the conjugate is eluted with 100 % Buffer E (50 mM Hepes, pH 6.9). The conjugate containing fractions are concentrated by UF/DF using a 10 kD membrane made of regenerated cellulose (88 cm2, cut-off 10 kD, Millipore). The final diafiltration step is performed against histidine buffer, pH 6.9 containing 150 mM NaCl. The preparation is analytically characterized by measuring total protein (Bradford) and biological activity according to methods known in the art. For the PSA-Interferon-gamma conjugate a specific activity of > 50 % in comparison to native Interferon-gamma is determined. The conjugate is additionally analytically characterized by Size Exclusion HPLC using a Agilent 1200 HPLC system equipped with a Shodex KW 803 column under conditions as previously described (Kolarich et al, Transfusion 2006;46:1959-77). It is shown that the preparation contains no free Interferon gamma.
as §1, with “free interferon gamma” for “free Interferon-gamma”, “10 kD /” for “10 kD,”, “the PSAinterferon-gamma” for “the PSA-Interferon-gamma”, “native interferon-gamma” for “native Interferon-gamma”, “free interferon-gamma.” for “free Interferon gamma.”
The free interferon gamma is removed by means of cation exchange chromatography (CEC). […]

## PSA-EPO conjugate: erythropoietin polysialylated with 20 kD aminooxy-PSA reagent, m-toluidine as catalyst
[1]; Reference Example 18 Method 1, alternative procedure (oxidation, then m-toluidine and 20 kD aminooxy-PSA, 5-fold)
  specific activity in comparison to native EPO: > 50%
[1]; Reference Example 18 Method 3, alternative procedure (simultaneous, 20 kD aminooxy-PSA, 5-fold)
  specific activity in comparison to native EPO: > 50%

## PEG-EPO conjugate: EPO PEGylated with a linear 20 kD PEGylation reagent containing an aminooxy group, m-toluidine as catalyst
[1]; Reference Example 32 Method 1, alternative (oxidation, then m-toluidine and 20 kD aminooxy-PEG, 5-fold)
  specific activity in comparison to native EPO: > 50%
[1]; Reference Example 32 Method 3, alternative (simultaneous, 20 kD aminooxy-PEG, 5-fold)
  specific activity in comparison to native EPO: > 50%

## PSA-rFIX conjugate: rFIX polysialylated via oxidized carbohydrate with 20 kD aminooxy-PSA reagent, m-toluidine as catalyst
FIX chromogenic activity; Reference Example 11 Method 1 (oxidation, UF/DF, then m-toluidine and 20 kD aminooxy-PSA), FIX chromogenic activity, Bradford
  specific activity in comparison to native rFIX: > 50%
FIX chromogenic activity; Reference Example 11 Method 2 (oxidation, UF/DF, then 10 mM m-toluidine and 20 kD aminooxy-PSA), FIX chromogenic- and clotting activity, Bradford and BCA
  specific activity in comparison to native rFIX: > 50%
FIX chromogenic activity; Reference Example 11 Method 3 (simultaneous periodate, m-toluidine, 20 kD aminooxy-PSA), FIX chromogenic activity, Bradford
  specific activity in comparison to native rFIX: > 50%
FIX chromogenic activity; Reference Example 11 Method 4 (simultaneous, 2 mg rFIX / ml), FIX chromogenic- and clotting activity, Bradford and BCA
  specific activity in comparison to native rFIX: > 50%

B1: PSA-Interferon-gamma conjugate: interferon-gamma polysialylated with 20 kD aminooxy-PSA reagent, m-toluidine as catalyst (conjugate, UniProt P01579 24-161, looked up)
Interferon gamma: QDPYVKEAENLKKYFNAGHSDVADNGTLFLGILKNWKEESDRKIMQSQIVSFYFKLFKNFKDDQSIQKSVETIKEDMNVKFFNSNKKKRDDFEKLTNYSVTDLNVQRKAIHELIQVMAELSPAAKTGKRKRSQMLFRG
modifications: polysialic acid 20 kD
notes: interferon-gamma polysialylated with 20 kD aminooxy-PSA reagent, m-toluidine as catalyst
[2]; Reference Example 27 Method 1 (oxidation, then m-toluidine and 20 kD aminooxy-PSA, 5-fold)
  specific activity in comparison to native interferon-gamma: > 50%
[2]; Reference Example 27 Method 2 (simultaneous, 20 kD aminooxy-PSA, 5-fold)
  specific activity in comparison to native interferon-gamma: > 50%
[2]; Reference Example 27 Method 3 (simultaneous, 20 kD aminooxy-PSA, 5-fold)
  specific activity in comparison to native interferon-gamma: > 50%

B2: PEG-interferon-gamma conjugate: interferon-gamma PEGylated with a linear 20 kD aminooxy PEGylation reagent, m-toluidine as catalyst (conjugate, UniProt P01579 24-161, looked up)
Interferon gamma: QDPYVKEAENLKKYFNAGHSDVADNGTLFLGILKNWKEESDRKIMQSQIVSFYFKLFKNFKDDQSIQKSVETIKEDMNVKFFNSNKKKRDDFEKLTNYSVTDLNVQRKAIHELIQVMAELSPAAKTGKRKRSQMLFRG
modifications: PEG 20 kD
notes: interferon-gamma PEGylated with a linear 20 kD aminooxy PEGylation reagent, m-toluidine as catalyst
[2]; Reference Example 41 Method 1 (oxidation, then m-toluidine and 20 kD aminooxy-PEG, 5-fold)
  specific activity in comparison to native Interferon gamma: > 50%
[2]; Reference Example 41 Method 3 (simultaneous, 20 kD aminooxy-PEG, 5-fold)
  specific activity in comparison to native interferon-gamma: > 50%
